Here are results for 1 variant from IntAct's records for PubMed 19497856.

The labels stand for the following.
B1: Homeobox protein SIX1 (Homo sapiens), Q15475 (parent)
chain: MSMLPSFGFTQEQVACVCEVLQQGGNLERLGRFLWSLPACDHLHKNESVLKAKAVVAFHRGNFRELYKILESHQFSPHNHPKLQQLWLKAHYVEAEKLRGRPLGAVGKYRVRRKFPLPRTIWDGEETSYCFKEKSRGVLREWYAHNPYPSPREKRELAEATGLTTTQVSNWFKNRRQRDRAAEAKERENTENNNSSSNKQNQLSPLEGGKPLMSSSEEEFSPPQSPDQNSVLLLQGNMGHARSSNYSLPGLTASQPSHGLQTHQHQLQDSLLGPLTSSLVDLGS
partner: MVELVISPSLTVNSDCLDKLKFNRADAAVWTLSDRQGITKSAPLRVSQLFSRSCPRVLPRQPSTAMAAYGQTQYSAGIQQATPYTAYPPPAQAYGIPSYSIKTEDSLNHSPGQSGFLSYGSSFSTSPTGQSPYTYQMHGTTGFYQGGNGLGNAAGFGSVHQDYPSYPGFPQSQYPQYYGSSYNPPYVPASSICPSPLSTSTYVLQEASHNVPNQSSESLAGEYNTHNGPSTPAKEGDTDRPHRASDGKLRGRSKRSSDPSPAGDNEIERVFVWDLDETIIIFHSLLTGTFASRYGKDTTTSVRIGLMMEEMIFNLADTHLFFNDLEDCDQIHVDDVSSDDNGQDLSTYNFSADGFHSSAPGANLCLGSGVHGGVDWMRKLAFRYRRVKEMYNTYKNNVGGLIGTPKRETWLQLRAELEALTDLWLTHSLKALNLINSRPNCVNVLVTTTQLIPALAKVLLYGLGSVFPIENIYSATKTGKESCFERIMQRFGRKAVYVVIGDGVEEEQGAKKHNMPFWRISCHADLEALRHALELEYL

Variants of B1 are the subject of the experiment. The note with it: with eya2_human EYA2, O00167.
Turning to V17E, the “effect of a mutation on the interaction” value is “decreasing interaction strength”.
